Data on 33 sequences can be found in the supplement of paper PMC9170038.

This data set relates to MS2 coat protein. Briefly: apparent KD of MS2 coat protein; designed switch direction (-1 OFF switch, 1 ON switch): -1; higher = weaker reporter binding. In outline:
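The apparent KD reported per design is the median over clusters of curve fits to normalised cluster fluorescence. The RNA switches were transcribed on Illumina chips by stalled E. coli RNA polymerase. SNAP-549-labelled MS2 coat protein was titrated from 0.7 or 1.5 nM, doubling up to 3 µM, in Tris-HCl pH 7.5 buffer containing KCl, MgCl2, BSA, DTT, tRNA and Tween-20, with no input, 200 uM small-molecule ligand, or an oligonucleotide input.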

[1] abbreviates: Eterna round: R95, input ligand: FMN 200 uM.
The mark [2] stands for this setting: Eterna round: R95, input ligand: microRNA oligo, concentration not stated.
Setting [3] is: Eterna round: R95, input ligand: none.
Setting [4] is: input ligand: microRNA oligo, concentration not stated.

For “GUGAAGAAGUUAGUGGCCUACAUGAGGAUCACCCAUGUGAGGGAAAUGUUGAGGCGAAAGUUGUGUGCUCGUCUGUA [JR_SV3TOV1_Sub040] (puzzle: Sensor v3, turn-off variant 1)”, the “apparent KD of MS2 coat protein” value under setting [1] was 27.1 nM, the “apparent KD of MS2 coat protein” value under setting [2] was found to be 52.1 nM and the “apparent KD of MS2 coat protein” value under setting [3] worked out at 31.1 nM.

Consider “GUGACACAUGAGGAUCACCCAUGUGAGGAUAUAUCCGACUAUGAAAGGGUGUAGCAGGAUAGAAGGUACUGGCG [Eternabot (L2) Solution 54] (Eterna round: R97, puzzle: Exclusion 1)”, for which the “apparent KD of MS2 coat protein” value by setting is: (input ligand: FMN 200 uM) 83.1 nM; (input ligand: none) 104 nM.

For “GUGACACAUGAGGAUCACCCAUGUGAGGAUAUGAUACUAUGUACUUCGGUACAUAGUAUCAGAAGGCACAGUGA [Ex1-3: 7] (puzzle: Exclusion 1)”, under setting [2], the “apparent KD of MS2 coat protein” value is 43.2 nM.

Consider “GUGAGCAGACGGAGAUCCAACAUGAGGAUCACCCAUGUCUCAUAAGCUUUUUGCUCAUCUUAUUGUACCUUGGUGCU [Mat - Sensor v3 - turn-off var 1 - JL Mod - D20] (puzzle: Sensor v3, turn-off variant 1)”, for which the “apparent KD of MS2 coat protein” value runs as follows: under setting [1], 291 nM; under setting [2], 8.27 nM; under setting [3], 253 nM.

In the case of “GUGCUACAUGAGGAUCACCCAUGUCAGGAUAUGCGAAUUUCAUCAAAAGAUGAAAUUUGCAGAAGGGACAACAC [Omei Ex1 A18] (Eterna round: R97, puzzle: Exclusion 1)”, the “apparent KD of MS2 coat protein” value reads like this: (input ligand: FMN 200 uM) 88.2 nM; (input ligand: none) 38.5 nM.

Consider “GUGCUAUGAGGAUAUACGUUGGUGGGCAUCUGUGUGCUCCUACAUGAGGAUCACCCAUGUAGAAGGCAUGUCAC [LRO-Excl2-20] (Eterna round: R96, puzzle: Exclusion 2)”, for which the “apparent KD of MS2 coat protein” value turned out to be 22.9 nM (input ligand: FMN 200 uM), 9.33 nM under setting [4] and 14.1 nM (input ligand: none).

On to “GUGCUAUGAGGAUAUACGUUGGUGGGCAUCUGUGUGCUCCUACAUGAGGAUCACCCAUGUAGAAGGCAUGUCAC [LRO-Excl2-20] (puzzle: Exclusion 2)”, for which the “apparent KD of MS2 coat protein” value under setting [2] amounted to 11.9 nM.

For the sequence “GUGGAACAUGAGGAUCACCCAUGUGAGGAUAUGUGAGAAGGAUUUGAGAUGGAGAGGGACAGAAGGCACUAGGA [JR_Exclu1_Sub083] (puzzle: Exclusion 1)”, the “apparent KD of MS2 coat protein” value reads like this: under setting [1], 36.3 nM; under setting [2], 39.4 nM; under setting [3], 55.8 nM.

Regarding “GUGGAACAUGAGGAUCACCCAUGUGAGGAUAUGUGUGAAUAGAGGAGAAGAAGAGAGAACAGAAGGCACGGAGG [JR_Exclu1_Sub066] (puzzle: Exclusion 1)”, the “apparent KD of MS2 coat protein” value runs as follows: under setting [1], 53.3 nM; under setting [2], 73.4 nM; under setting [3], 93.3 nM.

Regarding “GUGGUACAUGAGGAUCACCCAUGUAAGGAUAUAGUCGUCUGGUGGUCGCGGGUGGUGGCUAGAAGGUGCGUGCG [-19.6, -16.8 kcal, A 19%] (Eterna round: R97, puzzle: Exclusion 1)”, the “apparent KD of MS2 coat protein” value reads like this: (input ligand: FMN 200 uM) 93.9 nM; (input ligand: none) 125 nM.

Regarding “GUGGUACAUGAGGAUCACCCAUGUCAGGAUAUCGUGUGUUUUUUUUCGGCCGCGCGUGCGAGAAGGGACGUCUU (puzzle: Exclusion 1)”, under setting [2], the “apparent KD of MS2 coat protein” value was determined as 17.3 nM.

For “GUGGUACAUGAGGAUCACCCAUGUGAGGAUAUAGUCGGCUGGUGGUCGCGGGUGGUGGCUAGAAGGUGCGUGCG [-19.3, -16.9 kcal, A 18%] (Eterna round: R97, puzzle: Exclusion 1)”, the “apparent KD of MS2 coat protein” value was 171 nM (input ligand: FMN 200 uM) and 179 nM (input ligand: none).

For the sequence “GUGUACAGAGGAUAUAUAUGAGCAUGGAAACAUGCAAGAUCACAUGAGGAUCACCCAUGUAGAAGGCUGUACAC [Ex2: 736] (Eterna round: R96, puzzle: Exclusion 2)”, the “apparent KD of MS2 coat protein” value (input ligand: FMN 200 uM) worked out at 861 nM, the “apparent KD of MS2 coat protein” value under setting [4] turned out to be 99.3 nM and the “apparent KD of MS2 coat protein” value (input ligand: none) turned out to be 112 nM.

Take “GUGUACAGAGGAUAUGCACGAGUAGUUACGAAAGUAACUACACAUGAGGAUCACCCAUGUAGAAGGCUGUACAC [Dot plot directed v1] (puzzle: Exclusion 2)”: under setting [2], the “apparent KD of MS2 coat protein” value is 13.3 nM.

Take “GUGUACGCAGGAUAUACAUGAGGAUCACCCAUGUGAAUAAGAUAGAAUAAGAUAAAGUGUAGAAGGGCGAGUGU [Excluse me!!! 5 - Jieux - Exclusion 3] (puzzle: Exclusion 3)”: under setting [2], the “apparent KD of MS2 coat protein” value stood at 28.3 nM.

Regarding “GUGUACGGAGGAUAUGCUGGAAUCUAGCGAAGCUAGGUUCCACAUGAGGAUCACCCAUGUAGAAGGCUGUACAC [Dot plot directed A v5] (puzzle: Exclusion 2)”, the “apparent KD of MS2 coat protein” value under setting [2] came to 21.1 nM.

Consider “GUGUAGAUAGGAUAUGCUUUGAGCUUAUGAGAGUAUGCUCGACAUGAGGAUCACCCAUGUAGAAGGGUUUACAC [LRO-Excl2-04] (puzzle: Exclusion 2)”, for which the “apparent KD of MS2 coat protein” value under setting [2] was found to be 68.5 nM.

On to “GUGUAGGGAGGAUAUACAUGAGGAUCACCCAUGUGAAUAAGAUAGAAUAAGAUAAAGUGUAGAAGGCUUAGUGU [Excluse me!!! 24 - Jieux - Exclusion 3] (puzzle: Exclusion 3)”, for which the “apparent KD of MS2 coat protein” value runs as follows: under setting [1], 49.6 nM; under setting [2], 53 nM; under setting [3], 67.9 nM.

With “GUGUCACAUGAGGAUCACCCAUGUGAGGAUAUCAUGCUUCGUAGUAAACUACGAAGUGUGAGAAGGCACAUGAC [Omei Ex1 E1] (Eterna round: R97, puzzle: Exclusion 1)”, the “apparent KD of MS2 coat protein” value by setting is: (input ligand: FMN 200 uM) 71 nM; (input ligand: none) 47.8 nM.

Consider “GUGUGAAGUUAGGAUAUGAUCGGACAAGAGCCUUCAGAAGGGACCACAUGAGGAUCACCCAUGUUGUCGGUGGC [Eternabot (L1) Solution 41] (Eterna round: R97, puzzle: Exclusion 6)”, for which the “apparent KD of MS2 coat protein” value by setting is: (input ligand: FMN 200 uM) 20.5 nM; (input ligand: none) 18.6 nM.

Take “GUGUGACAUGAGGAUCACCCAUGUGAGGAUAUCAUGCUUCGUAGUAAACUACGAAGUGUGAGAAGGCACAUAAC [Omei Ex1 E8] (Eterna round: R97, puzzle: Exclusion 1)”: the “apparent KD of MS2 coat protein” value (input ligand: FMN 200 uM) was determined as 678 nM and the “apparent KD of MS2 coat protein” value (input ligand: none) amounted to 122 nM.

Regarding “GUGUGACAUGAGGAUCACCCAUGUGAGGAUAUUUAUGUUUGGUUGUUUAGUUGGGCGUGGAGAAGGCGCGUGCG [19% As] (Eterna round: R97, puzzle: Exclusion 1)”, the “apparent KD of MS2 coat protein” value runs as follows: (input ligand: FMN 200 uM) 65.6 nM; (input ligand: none) 85.1 nM.

Regarding “GUGUUGUCAGGAUAUCUUACAUAACAAUCGUUGUUACCAUUGGAGAAGGGACAUGAGGAUCACCCAUGUUAACC [tap-tap-tappy46] (Eterna round: R97, puzzle: Exclusion 4)”, the “apparent KD of MS2 coat protein” value is 18.9 nM (input ligand: FMN 200 uM) and 19.6 nM (input ligand: none).

Consider “GUUAAACAUGAGGAUCACCCAUGUAAGGAUAUGCUGCGGUCGAGAUGAAGUGAAUGCAGCAGAAGGUACAAUUG [Mat - Mod of JL D53] (puzzle: Exclusion 1)”, for which the “apparent KD of MS2 coat protein” value under setting [2] stood at 148 nM.

Turning to “GUUAACGAUGAGGAUAUAUGAUAUCAAAGCAUCAUAGAAGGCAUCACAUGAGGAUCACCCAUGUGAUCUUCUUG [Mat - Exclusion 6 - JL Mod - D27] (Eterna round: R97, puzzle: Exclusion 6)”, the “apparent KD of MS2 coat protein” value by setting is: (input ligand: FMN 200 uM) 120 nM; (input ligand: none) 29.4 nM.

Take “GUUAACGUAGGAUAUUAGUACAUGAACAUGAGGAUCACCCAUGUGAGGUGGGUCUAAGAAUAAGAAGGGCGAAGAA [EX5 #26] (Eterna round: R97, puzzle: Exclusion 5)”: the “apparent KD of MS2 coat protein” value is, setting by setting: (input ligand: FMN 200 uM) 317 nM; (input ligand: none) 312 nM.

For “GUUACACAUGAGGAUCACCCAUGUAAGGAUAUGCUGCGGUCGCGCUGACGUGACUGCAGCAGAAGGUACAAAUG [Mat - Mod of JL D56] (puzzle: Exclusion 1)”, the “apparent KD of MS2 coat protein” value under setting [2] stood at 59.3 nM.

Take “GUUAUGUCAGGAUAUGCUAAUGAUGAGUGCUCAGACAUGAUGCAGAAGGGACAUGAGGAUCACCCAUGUACUAA [EX4 #11] (Eterna round: R97, puzzle: Exclusion 4)”: the “apparent KD of MS2 coat protein” value came out at 116 nM (input ligand: FMN 200 uM) and 36.1 nM (input ligand: none).

For “GUUCUUCCUGUAAGGAUAUCCAUGUGUCGGUUUAUGGAGAAGGUACAUGAGGAUCACCCAUGUCACCCGCGUUA (Eterna round: R97, puzzle: Brourd's mod of Exclusion 4)”, the “apparent KD of MS2 coat protein” value turned out to be 45.9 nM (input ligand: FMN 200 uM) and 18.5 nM (input ligand: none).

Take “GUUGCGUUUGUGAGGAUAUGCUGGUCCUUGGUUCGGCAGAAGGCACAUGAGGAUCACCCAUGUGGUGUCGUUCC [salish99_Bmod_ex4_051] (puzzle: Brourd's mod of Exclusion 4)”: the “apparent KD of MS2 coat protein” value under setting [2] amounted to 13.3 nM.

Regarding “GUUGCGUUUGUGAGGAUAUGCUGGUCCUUGGUUCGGCAGAAGGCACAUGAGGAUCACCCAUGUGGUGUUGUUCC [salish99_Bmod_ex4_052] (puzzle: Brourd's mod of Exclusion 4)”, the “apparent KD of MS2 coat protein” value under setting [2] came out at 90.5 nM.

Turning to “GUUGUGUAAGGAUAUGCCUGGCCGUGAGGCCAGAUUGAGUGGCAGAAGGUACAUGAGGAUCACCCAUGUACGGG [salish99_ex4_4_003] (Eterna round: R97, puzzle: Exclusion 4)”, the “apparent KD of MS2 coat protein” value (input ligand: FMN 200 uM) is 145 nM and the “apparent KD of MS2 coat protein” value (input ligand: none) is 26.8 nM.

In the case of “GUUGUUUAUGUAGGAUAUGCAAGGCGAGCCUAAGCAGAAGGACAUGAGGAUCACCCAUGUAUUGCGGUCUGCGUUCAGAUCGCU [salish99_ExNG1_r4_015] (Eterna round: R96, puzzle: Exclusion NG 1)”, the “apparent KD of MS2 coat protein” value (input ligand: FMN 200 uM) worked out at 164 nM, the “apparent KD of MS2 coat protein” value under setting [4] is 17.3 nM and the “apparent KD of MS2 coat protein” value (input ligand: none) was determined as 25.9 nM.
